Reference: publication doi:10.64898/2025.12.08.692925

Experiments:
Assay in all cases: split reporter
[1] = biological target: Tim23 mutant M4 fused to short YFP (S. cerevisiae) (UniProt P32897)
[2] = biological target: Tim23 mutant M2 fused to short YFP (S. cerevisiae) (UniProt P32897)
[3] = biological target: Tim23 mutant M1 fused to short YFP (S. cerevisiae) (UniProt P32897)

- percent of fluorescent cells [1]: 9%
- percent of fluorescent cells [2]: 7%
- percent of fluorescent cells [3]: 4%
B1: Sfc1 fused to long YFP (natural protein)
chain: MSQKKKASHPAINLMAGGTAGLFEALCCHPLDTIKVRMQIYRRVAGIEHVKPPGFIKTGRTIYQKEGFLALYKGLGAVVIGIIPKMAIRFSSYEFYRTLLVNKESGIVSTGNTFVAGVGAGITEAVLVVNPMEVVKIRLQAQHLTPSEPNAGPKYNNAIHAAYTIVKEEGVSALYRGVSLTAARQATNQGANFTVYSKLKEFLQNYHQMDVLPSWETSCIGLISGAIGPFSNAPLDTIKTRLQKDKSISLEKQSGMKKIITIGAQLLKEEGFRALYKGITPRVMRVAPGQAVTFTVYEYVREHLENLGIFKKNDTPKPKPLK
